Data as given in patent publication US20220411514A1, “ANTI-GAL3 ANTIBODIES AND METHODS OF USE FOR INSULIN RESISTANCE” (TrueBinding, Inc., priority 2021, published 2022).

B1: 849.2D7: anti-Gal3 antibody (antibody, V domains shown)
VH: QVQLQQSGPQLVRPGASVKISCKASGYSFTNYWMHWVKQRPGQGLEWIGMIDPSDSETRLNQKFKDKATLTVDKSSSTAYMQLSSPTSEDSAVYYCATGRPDYWGQGTTLTVSS
VL: DIVMTQSHKFMSTSVGDRVSITCKASQDVSTAVAWYQQKPGQSPKLLIYWASTRHTGVPDRFTGSGSGTDYTLTISSVQAEDLALYYCQQHYSTPYTFGGGTKLEIK
B2: 20H5.A3-VH3VL1: anti-Gal3 antibody, VH SEQ ID NO: 814, VL SEQ ID NO: 829 (antibody, V domains shown)
VH: QIQLVQSGSELKKPGASVKVSCKASGYAFTTYGMSWVRQAPGQGLEWMGWVNTYSGVPTYADDFTGRFVFSLETSVSTAYLQISSLKAEDTAVYFCARGPYAMDYWGQGTLVTVSS
VL: DIQMTQSPSSLSASVGDRVTITCQASQDISNYLNWYQQKPGKAPKLLIYYTSSLLTGVPSRFSGSGSGTDYTFTISSLQPEDIATYYCQQYSKLPYTFGQGTKLEIK
modifications: VH-88 Peptide Sequence; VL-86 Peptide Sequence
B3: 20H5.A3-VH3VL3: anti-Gal3 antibody, VH SEQ ID NO: 815, VL SEQ ID NO: 830 (antibody, V domains shown)
VH: QIQLVQSGSELKKPGASVKVSCKASGYAFTTYGMSWVRQAPGQGLEWMGWVNTYSGVPTYADDFTGRFVFSLETSVSTAYLQISSLKAEDTAVYFCARGPYAMDYWGQGTLVTVSS
VL: DIQMTQSPSSLSASVGDRVTITCRASQDISNYLNWYQQKPGKAPKLLIYYTSSLLSGVPSRFSGSGSGTDYTLTISSLQPEDFATYYCQQYSKLPYTFGQGTKLEIK
modifications: VH-89 Peptide Sequence; VL-87 Peptide Sequence
B4: 20H5.A3-VH4VL1: anti-Gal3 antibody, VH SEQ ID NO: 816, VL SEQ ID NO: 831 (antibody, V domains shown)
VH: QIQLVQSGSELKKPGASVKVSCKASGYAFTTYGMSWVRQAPGQGLEWMGWVNTYSGVPTSADDFTGRFVFSLETSVSTAYLQISSLKAEDTAVYFCARGPYAMDYWGQGTLVTVSS
VL: DIQMTQSPSSLSASVGDRVTITCQASQDISNYLNWYQQKPGKAPKLLIYYTSSLLTGVPSRFSGSGSGTDYTFTISSLQPEDIATYYCQQYSKLPYTFGQGTKLEIK
modifications: VH-90 Peptide Sequence; VL-88 Peptide Sequence
B5: 20H5.A3-VH5VL1: anti-Gal3 antibody, VH SEQ ID NO: 817, VL SEQ ID NO: 832 (antibody, V domains shown)
VH: QVQLVQSGFELKKPGASVKISCKASGYAFTTYGMSWVRQAPGQGLEWMGWVNTYSGVPTYAQAFTGRFVFSLDTSVSTAYLQISSLKAEDTAVYYCARGPYAMDYWGQGTLVTVSS
VL: DIQMTQSPSSLSASVGDRVTITCQASQDISNYLNWYQQKPGKAPKLLIYYTSSLLTGVPSRFSGSGSGTDYTFTISSLQPEDIATYYCQQYSKLPYTFGQGTKLEIK
modifications: VH-91 Peptide Sequence; VL-89 Peptide Sequence
B6: 20H5.A3-VH5VL3: anti-Gal3 antibody, VH SEQ ID NO: 818, VL SEQ ID NO: 833 (antibody, V domains shown)
VH: QVQLVQSGFELKKPGASVKISCKASGYAFTTYGMSWVRQAPGQGLEWMGWVNTYSGVPTYAQAFTGRFVFSLDTSVSTAYLQISSLKAEDTAVYYCARGPYAMDYWGQGTLVTVSS
VL: DIQMTQSPSSLSASVGDRVTITCRASQDISNYLNWYQQKPGKAPKLLIYYTSSLLSGVPSRFSGSGSGTDYTLTISSLQPEDFATYYCQQYSKLPYTFGQGTKLEIK
modifications: VH-92 Peptide Sequence; VL-90 Peptide Sequence
B7: 20H5.A3-VH6VL1: anti-Gal3 antibody, VH SEQ ID NO: 819, VL SEQ ID NO: 834 (antibody, V domains shown)
VH: QVQLVQSGFELKKPGASVKISCKASGYAFTTYGMSWVRQAPGQGLEWMGWVNTYSGVPTSAQAFTGRFVFSLDTSVSTAYLQISSLKAEDTAVYYCARGPYAMDYWGQGTLVTVSS
VL: DIQMTQSPSSLSASVGDRVTITCQASQDISNYLNWYQQKPGKAPKLLIYYTSSLLTGVPSRFSGSGSGTDYTFTISSLQPEDIATYYCQQYSKLPYTFGQGTKLEIK
modifications: VH-93 Peptide Sequence; VL-91 Peptide Sequence
B8: 20H5.A3-VH6VL3: anti-Gal3 antibody, VH SEQ ID NO: 820, VL SEQ ID NO: 835 (antibody, V domains shown)
VH: QVQLVQSGFELKKPGASVKISCKASGYAFTTYGMSWVRQAPGQGLEWMGWVNTYSGVPTSAQAFTGRFVFSLDTSVSTAYLQISSLKAEDTAVYYCARGPYAMDYWGQGTLVTVSS
VL: DIQMTQSPSSLSASVGDRVTITCRASQDISNYLNWYQQKPGKAPKLLIYYTSSLLSGVPSRFSGSGSGTDYTLTISSLQPEDFATYYCQQYSKLPYTFGQGTKLEIK
modifications: VH-94 Peptide Sequence; VL-92 Peptide Sequence
B9: 2D10-hVH4-HVL1: anti-Gal3 antibody, VH SEQ ID NO: 806, VL SEQ ID NO: 821 (antibody, V domains shown)
VH: QVQLVQSGAEVKKPGASVKVSCKASGYTFTDYYINWVRQAPGQRLEWMGWIYPGSQDTKYNEKFQGRVTLTVDTSASTAYMELSSLRSEDTAVYFCANYFGSSGWFFDVWGQGTMVTVSS
VL: DIVMTQSPLSLPVTPGEPASISCRSSKSLLHSDGITYLYWYLQKPGQSPQLLIYRMSNRASGVPDRFSGSGSGTDFTLKISRVEAEDVGVYYCAQMIEFPLTFGQGTKLEIK
modifications: VH-80 Peptide Sequence; VL-78 Peptide Sequence
B10: 847.20H7: anti-Gal3 antibody (antibody, V domains shown)
VH: QVQLQQSGAELVRPGASVNLSCKASGYTFTNYWMNWVKQRPGQGLEWVGMIDPSDSETHYNQMFKDKATLTIDKSSSIAYMQLSSLTSEDSAVYYCARWGAMDYWGQGTSVTVSS
VL: DIVMTQSHKIMSTSVGDRVSITCKASQDVSTTVAWFQQKPGQSPKLLLYWASTRHTGVPDRFTGSGSGTDYTLTISSVQAEDLALYYCQQHYSPPFTFGSGTKLEIK

Target: T1, human Gal3 (Homo sapiens, UniProt P17931)
T1 construct: 6xHis (linker-spaced) (C); purchased AcroBio (Acro Biosystems) GA3-H5129
T1 sequence (P17931 whole entry): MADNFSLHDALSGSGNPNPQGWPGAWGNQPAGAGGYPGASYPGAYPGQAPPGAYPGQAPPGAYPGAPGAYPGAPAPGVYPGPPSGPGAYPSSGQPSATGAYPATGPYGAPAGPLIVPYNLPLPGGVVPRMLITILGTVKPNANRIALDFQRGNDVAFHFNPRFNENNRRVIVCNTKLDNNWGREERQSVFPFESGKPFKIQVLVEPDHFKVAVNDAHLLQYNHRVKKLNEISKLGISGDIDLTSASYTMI
Experiment: Epitope binning, sandwich format, SPR Carterra LSA (Example 8)
Type: binding
Settings: not given
Experimental: The epitope binning assay was done in a sandwich format on the high-throughput SPR-based Carterra LSA unit (CarterraBio, Salt Lake City, Utah). First, the purified antibodies were diluted to 10 μg/ml concentration in 10 mM NaOAc (pH 5.0) and then were covalently coupled via amine group to HC200M chip activated by EDC and S-NHS to immobilize antibodies to different positions of a 384-spot array. One hundred thirty-eight binning cycles were run on the array of immobilized antibodies. In each cycle, first, human Gal3 (AcroBio GA3-H5129) was injected over the entire array to bind to different antibodies (primary antibody), followed by one antibody (secondary antibody) selected among the panel of 150 anti-GAL3 antibodies tested. At the end of each cycle, the array was regenerated by 10 mM Glycine (pH 2.0) to remove bound antigen and secondary antibody from the array. The data analysis was done using the Epitope software by CarterraBio.

Question: How did the “epitope bin (mutual competitive binding for Gal3)” value turn out when B1 was run?
Answer: Its value is 10.

Test system: GLUT4 translocation in L6 GLUT4myc myoblasts
Experiment: Insulin-stimulated GLUT4 translocation with Gal3 and anti-Gal3 antibody
Type: cell-based, rat
Settings: 30 μg/mL Gal3 pre-incubated with 60 μg/mL antibody, 100 nM insulin
Experimental: Rat L6 GLUT4myc myoblasts (Kerafast #ESK202-FP) express a Myc-tagged GLUT4 that can be detected with an anti-Myc antibody. These cells were grown in a 48-well plate in MEM u growth media (Gibco, #12-571-063)+10% fetal bovine serum (FBS; Corning #35-016-CV) until 90-95% confluence was reached. Cells were then washed in PBS and serum starved for 2 hours in MEM u growth media without FBS. Thirty (30) μg/mL recombinant human Gal3 (TrueBinding QCB200347) was pre-incubated with 60 μg/mL anti-Gal3 antibodies for 30 minutes before being added to the serum-starved cells for 1 hour at 37° C. At the end of incubation, half of the cells were treated with 100 nM insulin (Sigma-Aldrich #I5523-50MG) for 20 minutes while the other half acted as basal controls. After 20 minutes, cells were washed quickly with ice cold PBS twice, then incubated with 4% paraformaldehyde (Boster Bio #AR1068) for 10 minutes on ice followed by 10 minutes at room temperature. The cells were washed three times with PBS, then blocked with 0.5 mL 5% goat serum (Vector Laboratories #101098-382) in PBS for 15 minutes. After the blocking agent was aspirated from the cells, 1 μg/ml anti-Myc polyclonal antibody (Sigma-Aldrich #C-3956) in 5% goat serum was added for 1 hour. […] Primary antibody was aspirated away, and then cells washed 5 times with PBS. Next, cells (including background controls) were incubated with 1:1000 goat anti rabbit antibody secondary antibody (Abcam #Ab97051) in 5% Goat serum for 30 minutes at room temperature. After washing, cells were incubated with 400 μL of TMB (Thermo Scientific #PI34029) for 5 minutes, then 200 μL of 1N HCL (Avantor Performance #JT5620-2) was added to stop the reaction. 100 μL of the sample was transferred to a 96 well plate with duplicates transferred for each condition. Samples were read at 450 nm on a SpectraMax plate reader. […] The fold changes were plotted on GraphPad Prism and presented as mean (SEM) of the technical replicates. Statistical significance was determined using unpaired T-tests comparing samples treated with Gal3 and insulin with all other conditions.

Question: For B2, which “effect on Gal3 block of insulin-stimulated GLUT4 translocation” value (shortened to “effect on Gal3 block”) is on record?
Answer: Its value is “reduce the ability of Gal3 to block insulin-dependent GLUT4 translocation”.

Question: How did the “effect on Gal3 block” value turn out when B3 was run?
Answer: The value was “reduce the ability of Gal3 to block insulin-dependent GLUT4 translocation”.

Question: Which “effect on Gal3 block” value does the source give for B4 here?
Answer: The value was “reduce the ability of Gal3 to block insulin-dependent GLUT4 translocation”.

Question: How did the “effect on Gal3 block” value turn out when B5 was run?
Answer: Its value is “reduce the ability of Gal3 to block insulin-dependent GLUT4 translocation”.

Question: How did the “effect on Gal3 block” value turn out when B6 was run?
Answer: The value was “reduce the ability of Gal3 to block insulin-dependent GLUT4 translocation”.

Question: B7 was tested. Which “effect on Gal3 block” value did it give?
Answer: Its value is “reduce the ability of Gal3 to block insulin-dependent GLUT4 translocation”.

Question: How did the “effect on Gal3 block” value turn out when B8 was run?
Answer: The value was “reduce the ability of Gal3 to block insulin-dependent GLUT4 translocation”.

Question: B9 was tested. Which “effect on Gal3 block” value did it give?
Answer: The value was “reduce the ability of Gal3 to block GLUT4 translocation”.

Test system: Human Gal3 peptides
Experiment: Gal3 peptide binding ELISA (Example 8)
Settings: antibody 5 μg/mL
Experimental: Gal3 peptide binding activity of additional exemplary anti-Gal3 antibodies was assessed with the same peptides as described in FIG. 18 (SEQ ID NOs: 3-26). Human Gal3 peptides (LifeTein, custom order) and human Gal3 proteins (R&D Systems, 8259-GA; TrueBinding, QCB200349) were diluted in PBS (Corning, 21-030-CM) to concentrations of at least 100 μg/mL (peptides) or 1 μg/mL (proteins), and added to the wells of several 96-well ELISA plates (Thermo Fisher, 44-2404-21). After incubating the plates at 4° C. overnight, the plates were washed three times with PBST (PBS with 0.05% Tween 20 [VWR, 0777]). The plates were then blocked for an hour with 2% BSA (EMD Millipore, 126609) in PBST at room temperature with gentle rocking. Thereafter, the 2% BSA in PBST was discarded and Gal3-binding antibodies (reformatted hIgG4 [S228P]) were diluted in 2% BSA in PBST to concentrations of 5 μg/mL and added to the wells. The plates were incubated for an hour at room temperature with gentle rocking and then washed three times with PBST. Afterwards, Peroxidase AffiniPure F(ab′)2 Fragment Goat Anti-Human IgG (H+L) polyclonal antibody (Jackson ImmunoResearch, 109-036-003), was diluted in 2% BSA in PBST (1:4000) and added to the wells. The plates were incubated for 1 hour at room temperature with gentle rocking and then washed three times with PBST. TMB substrate (Thermo Scientific, 34029) was then added to each well. The reaction was stopped with 1M HCl (JT Baker, 5620-02) and read using a plate reader (Molecular Devices) at absorbance of 450 nm.

Question: How did the “binding to any of the tested Gal3 peptides” value turn out when B1 was run?
Answer: The value was “not found to bind”.

Question: With B10 as the molecule, how does the “binding to any of the tested Gal3 peptides” value read?
Answer: The value was “not found to bind”.
